Results taken from the RNAGym collection of RNA variant scans (doi:10.7554/elife.80360).

B1: HDV Ribozyme (parent)
chain: GGCCGGCAUGGUCCCAGCCUCCUCGCUGGCGCCGGCUGGGCAACAUUCCGAGGGGACCGUCCCCUCGGUAAUGGCGAAUGGGACCCA

Variants of: B1
Experiment: self-cleavage, relative activity (ratio to wild type); higher = more cleavage; co-transcriptional

Going from GGCCGGCAUGGUCCCAGCCUCCUCGCUGGCGCCGGCUGGGCAACAUUCCCAGGGGACCCUCCCCUCGGUAAUGGCGAAUGGGACCCA to GGCCGGCAUGGUCCCAGCCUCCUCGCUGGCGCCGGCUGCGCAACAUUCCUAGGGGACCGUCCCCUCGGUAAUGGCGAAUGGGACCCA, the self-cleavage falls from 1.16 to 0.345.

Compared with GGCCGGCAUGGUCCCAGCCUCCUCGAUGGCGCCGGCUGGGCAACAUUCCGAGGGGAACGUCCCCUCGGUAAUGGCGAAUGGGACCCA, GGCCGGCAUAGUCCCAGCCUCCUCGCUGGCGCCGGCUGGGCAACAUUCCGAGGGGACCGUCCCCUCGCUAAUGGCGAAUGGGACCCA is lower in self-cleavage: 1.02 for the first, 0.453 for the second.

Going from GGCCGGCAUGGUCCCAGCCUCCUCGCUGGCGCCGGCUGGGCAACAUUACGAGGGGACCGUCCCCUCGGUAAUGGCGAAUGCGACCCA to GGCCGGCAUGGUCUCAGCUUCCUCGCUGGCGCCGGCUGGGCAACAUUCCGAGGGGACCGUCCCCUCGGUAAUGGCGAAUGGGACCCA, the self-cleavage falls from 0.193 to 0.0723.

First: GGCCGGCAUGGUCCCAGCCUCCUCGCUGGCGCCGGCUGGGCAACAUUCCGAGGGGAACGUCCCCUCGGUAAUGGCGAAUGGGACCUA
Second: GGCCAGCAUGGUCCCAGCCUCCUCGCUGGCGCCGGCUGGGCAACAUUCCGAGGGGACCGUCCCCUGGGUAAUGGCGAAUGGGACCCA
The self-cleavage of the first is higher: 1.06 for the first, 0.244 for the second.

Going from GGCCGGCAUGGUCCCAGCCUCCUCGCUGGCGCCGGCUGGGGAACAUUCCGAGGGGAACGUCCCCUCGGUAAUGGCGAAUGGGACCCA to GGCCGGCAUGGUCCCAGCCUCCUCGCUGGCGCCGGCUGGGCAACAUCCCGAGGGGACCGUCCCCUCGGUAAUGGCGAAUGGGACCCU, the self-cleavage falls from 1.05 to 0.746.

Going from GGCCGGCAUGGUCCCAGCCUCCUCGCUGGCGCCGGCUGGGAAACAUUCCGAGGGGACCGUCCCCUCGGUAAAGGCGAAUGGGACCCA to CGCCGGCAUGGUCCCAGCCUCCUCGCUGGCGCCGGCUGGGCAACAUUCCGAGGGGACCGUCCCCUCGGUAAUGGCUAAUGGGACCCA, the self-cleavage falls from 0.906 to 0.115.

Compared with GGCCGGCAUGGUCCCAGCCUCCUCGCUGGCGCCGGCUGGGCAACAUUCCGAGGGGACCGUCCAGUCGGUAAUGGCGAAUGGGACCCA, GGCCGGCAUGGUCCCAGCCUCCUCGCUGGCGCCGGCUGGGCAACAUUCCGAGGGGACCCUCCCCUCGGUAAUGGCGAAUUGGACCCA is lower in self-cleavage: 0.506 for the first, 0.244 for the second.

Compared with GGCCGGCAUGGUCCCAGCCUCCUCGCUGGCGCCGGCUUGGCAACAUUCCGAGGGGACCGUCCCCUCGGUAAUGGCGAACGGGACCCA, GGCCGGCAUGGUCCCAGCCUCCUCGCUGGCUCCGGCUGGGCAACAUUCCGAGGGAACCGUCCCCUCGGUAAUGGCGAAUGGGACCCA is higher in self-cleavage: 0.112 for the first, 0.506 for the second.

First: GGCCGGCAUGGUCCCAGCCUCCUCGCUGGCGCCGGCUGGGCUACAUUCCGAGGGGACCGUCCCCUCGGUAAUGGCGAAUGGGACCCA
Second: GGCCGGCAUGGUCUCAGCCACCUCGCUGGCGCCGGCUGGGCAACAUUCCGAGGGGACCGUCCCCUCGGUAAUGGCGAAUGGGACCCA
The self-cleavage of the first is higher: 0.529 for the first, 0.145 for the second.

First: GGCCGGCAUGGUCCCAGCCUCCUCGCUGGCGCCGGCUGGGCAACAUUCGGAGGGGACCGUCCCCGCGGUAAUGGCGAAUGGGACCCA
Second: GGCCGGCAUGGUCCCAGCCUCCUCGCUGGCGCCGGCUGGGCAACAAUCCGAGGGGACCGUCCCCUCGGUAAUGGCGAAUGGGACCCU
The self-cleavage of the first is lower: 0.489 for the first, 0.76 for the second.

Compared with GGCCGGCAUGGUACCAGCCUCCUCGCUGGCGCCGGCUGGGCAACAUUCCGAGGGGACCGUCCCCACGGUAAUGGCGAAUGGGACCCA, GGCCGGCAUGGUCACAGGCUCCUCGCUGGCGCCGGCUGGGCAACAUUCCGAGGGGACCGUCCCCUCGGUAAUGGCGAAUGGGACCCA is lower in self-cleavage: 0.348 for the first, 0 for the second.

Compared with GGCCGGCAUGGUCCCAGCCUCCUCGCUCGCGCCGGCUGGGCAACAUUCCGAGGGGACCGUCCCCUCGGUAAUGGCGAAAGGGACCCA, GGCCGGCAUGGUCCCAGCCUCCUCCCUGGCGCCGGCUGGGCAACAUUCCGAGGGGACCGUCCCCUCGGUAAUGACGAAUGGGACCCA is higher in self-cleavage: 0 for the first, 0.0639 for the second.

Compared with GGCGGGCAUGGUCCCAGCCUCCUCGCUGGCGCCGGCUGGGCAACAUUCCGAGGGGACCCUCCCCUCGGUAAUGGCGAAUGGGACCCA, GGCCGGCAUGGUCCCAGCGUCCUCGCUGGCGCCGGCUGGGCAACAUUCCGAGGGGACCGUCCCCUCGGUGAUGGCGAAUGGGACCCA is lower in self-cleavage: 0.481 for the first, 0.104 for the second.

Going from GGCCGGCAUGGUCCCAGCCUCCUCGCUGGCGCCGGCCGGGCAACAUUCCGAGGGGACCGUCCCCUCGGUAAUGGCGAAAGGGACCCA to GGCCGGCAUCGUCCCAGCCUCCUCGCUGGCGCCGGCUGGGCAACAUUCCGAGGGGACCGUCCCCUCGGUAAUCGCGAAUGGGACCCA, the self-cleavage falls from 0.554 to 0.277.

Going from GGCCGGCAUGGUCCCAGCCGCCUCGCUGGCGCCUGCUGGGCAACAUUCCGAGGGGACCGUCCCCUCGGUAAUGGCGAAUGGGACCCA to GGCCGGCAUGGUCCCAGCCUCCUCGCUGGCGCCGGCUGGGCAACAUUCCGGGGGGACCGCCCCCUCGGUAAUGGCGAAUGGGACCCA, the self-cleavage rises from 0.0519 to 0.931.

First: GGCCGGCAUGGUCCCAGCCUCCUCGCUGGCGCCGGAUGGGCAACAUUCCGAGGGGACCGUCCCCUCGGUAAUGGCGAAUGGGACCUA
Second: GGCCGGCAUGGUCCCAGCCUCCUCGCUGGCGCCGGCUGGGCAACAUUCCGACGGGACCGUCCCCUCGGUAAUGGCGCAUGGGACCCA
The self-cleavage of the first is lower: 0.17 for the first, 0.403 for the second.

Compared with GGCCGGCAUGGUCCCAGCCUCCUCGCUGGCGCCGGCUGGGCAACAUUCCGAGGGGAGCGUCGCCUCGGUAAUGGCGAAUGGGACCCA, GGCCGGCAUGGUCCCAGCCUCCUCGCUGGCGCCGGCGGGGCAACAUUCCGAGGGGACAGUCCCCUCGGUAAUGGCGAAUGGGACCCA is lower in self-cleavage: 0.87 for the first, 0.145 for the second.

Going from AGCCGGCAUGGUCCCAGCCUCCUCGCUGGCGCCGGCUGGGAAACAUUCCGAGGGGACCGUCCCCUCGGUAAUGGCGAAUGGGACCCA to GGCCGACAUGGUCCCAGCCUCCUCGCUGGCGCCGGCUGGCCAACAUUCCGAGGGGACCGUCCCCUCGGUAAUGGCGAAUGGGACCCA, the self-cleavage rises from 0.222 to 0.232.

First: GGCCGGCAUGGUCCCAGCCUCCUGGCUGUCGCCGGCUGGGCAACAUUCCGAGGGGACCGUCCCCUCGGUAAUGGCGAAUGGGACCCA
Second: GGCCGGCAUGGUCCCAGCCUCCGCGCUGGCGCCGGCUGUGCAACAUUCCGAGGGGACCGUCCCCUCGGUAAUGGCGAAUGGGACCCA
The self-cleavage of the first is lower: 0.0692 for the first, 0.405 for the second.

First: GUCCGGCAUGGUCCCAGCCUCCUCGCUGGCGCCGGCUGGGCAACAUUCCGAGGGGACCGUCCCCUCGAUAAUGGCGAAUGGGACCCA
Second: GGCCGGCAAGGUCCCAGCCUCCGCGCUGGCGCCGGCUGGGCAACAUUCCGAGGGGACCGUCCCCUCGGUAAUGGCGAAUGGGACCCA
The self-cleavage of the first is lower: 0.0264 for the first, 0.7 for the second.

Compared with GGCCGGCAUGGUCCCAGCCUCCUCCCUGGCGCCGGCUGGGCAACAUUCCGAGGGGACCGUCCCUUCGGUAAUGGCGAAUGGGACCCA, GGCCGGCAUGGUCCCAGCCUCCUUGCUGGCGCCGGCUGGGCAACAUUCCGAGGGGACCGUCCCCUCGGUAAUGGCGAAUGGGAGCCA is higher in self-cleavage: 0.0369 for the first, 0.157 for the second.

First: GGCCGACAUGGUCCCAGCCUCCUCGCUGGCGCCGGGUGGGCAACAUUCCGAGGGGACCGUCCCCUCGGUAAUGGCGAAUGGGACCCA
Second: GGGCGGCAUGGUCUCAGCCUCCUCGCUGGCGCCGGCUGGGCAACAUUCCGAGGGGACCGUCCCCUCGGUAAUGGCGAAUGGGACCCA
The self-cleavage of the first is lower: 0.0811 for the first, 0.817 for the second.

First: GGCGGGCAUGGUCCCAGCCUCCUCGCUGGCGCCGGCUGGGCAACAUUCCGAGGGGACGGUCCCCUCGGUAAUGGCGAAUGGGACCCA
Second: GGCCGGCUUGGUCCCAGCCUCCUCGCUGGCGCCGGCUGGGCAACAUUCCGAGGGGACCGUCCCCUCGGUAAAGGCGAAUGGGACCCA
The self-cleavage of the first is lower: 0.289 for the first, 0.369 for the second.

Compared with GGCCGGCAUGGUCCCAGCCUCCUCGCUGGCGCCGCCUGGGCAACAUUCCGAGGGGACCGUCCCCUCGGUAAUGGCGAGUGGGACCCA, GGCCGGCAUGGUCCCAGCCUCCUCGCUGGCGCCGCCUGGGCAACAUUCCGAGGGGACCGUCCCCUCGGUAAUGGCGAAUGGGACCCA is lower in self-cleavage: 0.262 for the first, 0.254 for the second.

Going from GGCCUGCAUGGUCCCAGCCUCCUCGCUGGUGCCGGCUGGGCAACAUUCCGAGGGGACCGUCCCCUCGGUAAUGGCGAAUGGGACCCA to GGCCGGCAUGGUCCCAGCCUCCUCGCUGGCGCCGGCUGGGCAACAUUUCGAGGGGACCGUCCCCUCGGUAAUGGCGAAUUGGACCCA, the self-cleavage falls from 0.237 to 0.194.

First: GGCCGGCAUGAUCCCAGCCUCCUCGCUGGCGCCGGCUGGGCAACAUUCCGAGUGGACCGUCCCCUCGGUAAUGGCGAAUGGGACCCA
Second: GGCCGGCAUGGACCCAGCCUCCUCGCUGGCGCCGGCAGGGCAACAUUCCGAGGGGACCGUCCCCUCGGUAAUGGCGAAUGGGACCCA
The self-cleavage of the first is higher: 0.588 for the first, 0 for the second.

Compared with GGCCGGCAUGGUCCCAGCCUCCUCGCGGGCGCCGGCUGGGCAACAUUCCGAGGGGACCGUCGCCUCGGUAAUGGCGAAUGGGACCCA, GGCCGGCAUGGUCCCAGCCUCCUCGCUGGCGCCGGCUGGGCAACAUUCCGGGGGGACCGUCCCCUCGGUAAUGGCGAAUGGGUCCCA is lower in self-cleavage: 1.14 for the first, 0.356 for the second.

Going from GGCCGGCAUGGUCCCAGCCUCCUCGCUGGCGCCGGCUGGGCAACAUUCCGAGGGGACCGUCCCCUCGGCAAUGGCGAAUGGGACCCU to GGCCGGCAUGGUCCCAGCCUCCUCGCUGGCGCCGGCUGGGCAACAUUCCGAGGGGACGGUCCCCGCGGUAAUGGCGAAUGGGACCCA, the self-cleavage rises from 0.993 to 1.16.

Compared with GACCGGCAUGGUCCCAGCCUCCUCGCUGGCGCCGGCUGGUCAACAUUCCGAGGGGACCGUCCCCUCGGUAAUGGCGAAUGGGACCCA, CGCCGUCAUGGUCCCAGCCUCCUCGCUGGCGCCGGCUGGGCAACAUUCCGAGGGGACCGUCCCCUCGGUAAUGGCGAAUGGGACCCA is higher in self-cleavage: 0.0799 for the first, 0.217 for the second.

First: GGCCGGCAUGGUCCCAGCCUCCUCGCUGGCGCAGGCUGGGCAACAUUCCGAGGGGACCGUCCCCUCGGUAAUGGCGAACGGGACCCA
Second: GGCCGGCAUGGUCCCAGCCUCCUCGCUGGCGCCGGAUGGGCAACAUUCCGAGGGGACCGUCCCCUCGGUAAUGGCGCAUGGGACCCA
The self-cleavage of the first is lower: 0.0893 for the first, 0.259 for the second.

Compared with GGCCGGCAUGGCCCCAGCCUCCUCGCUGGCGCCGGCUGGGCAACAUUCCGAGGGGACCGUCCCCUCGGUAAUGGCGAAUGGGAACCA, GGCCGGUAUGGUCCCAGCCUCCUCGCUGGCGCCGGCUGGGCAACAAUCCGAGGGGACCGUCCCCUCGGUAAUGGCGAAUGGGACCCA is higher in self-cleavage: 0.222 for the first, 0.623 for the second.

Compared with GGCCGGCAUGGUCCCAGCCUCCUCGCUGGCGCCGACUGGGCAACAUUCCGAGGGGACCGUCCCCUCGGUAAUAGCGAAUGGGACCCA, GGCGGGCAUGGUCCCAGCCUCCUCGCUGGAGCCGGCUGGGCAACAUUCCGAGGGGACCGUCCCCUCGGUAAUGGCGAAUGGGACCCA is lower in self-cleavage: 0.372 for the first, 0.0601 for the second.
